Consider one molecule from patent US20080166345A1, “MEDICAMENTS COMPRISING GENE RECOMBINANT ANTIBODY AGAINST GANGLIOSIDE GD3” (KYOWA HAKKO KOGYO CO., LTD., priority 2001, published 2008).

Assay [1] relates to GD3 expressing B16 cell B16•29-10. Nature of the assay: Antitumor effects of KM871 with human IL-2, mouse syngeneic graft model. In kind it is in vivo, C57 BL/6 mouse. The following applies: FIG. 4; KM871 50 μg/day, IL-2 10 μg/day, days 6-14, tail vein.
Procedure: Six days after the tumor inoculation, the tumor diameter was measured using slide calipers to calculate the tumor volume by the following equation, and individuals having the value within the range of 10 to 80 mm^3 were selected.
Tumor volume=(width)^2×length×0.5
They were divided into groups in such a manner that the average tumor volume became uniform, and then the following administration groups of A to D were arranged to carry out continuous administration of the following agents from the tail vein once a day for 8 days (from the 6th day to 14th day).
IL-2 (Human Recombinant IL-2, Manufactured by Peprotech) Alone Group:
The test was carried out using 5 animals for each group. Each agent was prepared to 200 μl per animal by diluting with a citrate buffer (an aqueous solution of 10 mM citric acid and 150 n sodium chloride, adjusted to pH 6 with sodium hydroxide). From the 6th day after the inoculation, the tumor volume was periodically measured, and the antitumor effects were judged by comparing the mean value of specific volume V/V0 in each group.
A further assay has as its system B16-29-10. Put plainly: Fluorescent antibody technique (flow cytometer), GD3 synthase transfectant. The class given is binding, mouse. The following applies: antibody 5 μg/ml; FIG. 3. How it is done: (§1) Each of 1×10^6 cells of the GD3 synthase gene transfectants B16-8-3 and B16-29-10 obtained in b. of the item (2) of Example 1 and the parent cell line B16-F10 cell were suspended in PBS, put into a microtube (manufactured by Treff) and centrifuged (2,000 rpm for 2 minutes) for washing the cells, 50 μl of the anti-GD3 human chimeric antibody KM871 (a solution prepared by adjusting to 5 μg/ml with 1% BSA-PBS, negative control was 1% BSA-PBS alone) was added thereto, followed by stirring, and the reaction was carried out at 4° C. for 1 hour. After the reaction and subsequent washing with PBS by centrifugation three times, 100 μl of biotin-labeled goat anti-human IgG (H+L) solution (manufactured by VECTOR, used by diluting 400 folds with 1% BSA-PBS) was added thereto, followed by stirring, and the reaction was carried out at 4° C. for 1 hour. After washing with PBS by centrifugation three times, 100 μl of a streptoavidin-labeled Cy5 pigment solution (Streptoavidin-RED670 manufactured by GIBCO, used by diluting 100 folds with 1% BSA-PBS) was added thereto, followed by stirring, and the reaction was carried out at 4° C. for 30 minutes. After the reaction and subsequent washing with PBS by centrifugation three times, the cells were again suspended in PBS to carry out the analysis using a flow cytometer EPICS Elite (manufactured by COULTER).
On the technique in general: A flow cytometer gives signals particle by particle.

The next assay has as its system B16-8-3. Described as above. The following applies: antibody 5 μg/ml; FIG. 3. In kind it is binding, mouse. As for the experimental part: as §1
Assay [2] can be described thus: Reactivity of purified antibodies with various gangliosides (ELISA). The class given is binding. The following applies: antibody 10 μg/ml, 20 pmol/well; FIG. 22. How it is done:
(§2) Each ganglioside (2 nmol) was dissolved in […] of ethanol solution containing 10 μg of dipalmitoylphosphatidylcholine (manufactured by SIGMA) and 5 μg of cholesterol (manufactured by SIGMA). In each well of a 96 well plate for ELISA (manufactured by Greiner), 20 μl of the solution (becomes 20 pmol/well) or 20 μl of the solution diluted with ethanol was respectively dispensed, followed by air-drying, and then PBS containing 1% BSA (hereinafter referred to as “1% BSA-PBS”) was added in 100 μl/well and allowed to react at room temperature for 1 hour to thereby block remaining active groups. After discarding 1% BSA-PBS, culture supernatants of transformants or diluted solutions of humanized antibodies were added in 50 μl/well and allowed to react at room temperature for 1 hour. […] After the reaction and subsequent washing with Tween-PBS, an ABTS substrate solution (a solution prepared by dissolving 0.55 g of 2,2′-azinobis(3-ethylbenzothiazoline-6-sulfonic acid) in 1 L of 0.1 M citrate buffer (pH 4.2) and adding 1 μl/ml hydrogen peroxide just before the use) was added in 50 μl/well for color development and the absorbance at 415 nm (hereinafter referred to as “OD415”) was measured.
(§3) Reactivity of purified anti-GD3 CDR-grafted antibodies KM8869, KM8870 and KM8871 with GD3 (manufactured by DIA-IATRON) was measured by the ELISA shown in the item 2 of Reference Example. […]
(An ELISA detects its analyte on a solid surface through an enzyme-linked reagent.)

Assay in assay [3]: as above
The class given is binding. Conditions: antibody 10 μg/ml, 20 pmol/well; FIG. 22. As for the experimental part:
as §2, §3
This is another data set of the same source.

B1: KM871: anti-GD3 human chimeric antibody; VH SEQ ID NO:49, VL SEQ ID NO:50, human IgG1 and κ C regions (antibody, listed as Mus musculus, V domains shown)
VH: EVTLVESGGDFVKPGGSLKVSCAASGFAFSHYAMSWVRQTPAKRLEWVAYISSGGSGTYYSDSVKGRFTISRDNAKNTLYLQMRSLRSEDSAMYFCTRVKLGTYYFDSWGQGTTLTVSS
VL: DIQMTQTASSLPASLGDRVTISCSASQDISNYLNWYQQKPDGTVKLLIFYSSNLHSGVPSRFSGGGSGTDYSLTISNLEPEDIATYFCHQYSKLPWTFGGGTKLEIKR
modifications: human IgG1 and kappa constant regions
In the case of B1, the “tumor growth inhibitory effects (mean V/V0)” value in assay [1] is “antitumor effects were not found”. Besides, the reactivity with cells entry with B16-29-10 and with B16-8-3 was “reacted” in each case. Also, the binding to ganglioside result is recorded as “weakly” in assay [2] and “did not bind” in assay [3].
